According to patent publication US20230242586A1, “RAS INHIBITORS AND USES THEREOF” (The Regents of the University of California, priority 2020, published 2023):
Ends that are not written are not given here.

Biological target: biotinylated wildtype K-Ras·GppNHp (His-Avi-TEV-KRAS (wildtype))
Assay: TR-FRET K-Ras(wildtype) + Raf1-RBD
Settings: chains peptide; modification not given; biotin on the Avi tag (co-expressed BirA)

For YFVNFRNFRTFRCG (also: cyclic, ring closure not given here) [KD2], the IC50 was greater than 100 µM.
